Test results as given in US10766960 (dated 2020).

T1: FcgRIIb (human, UniProt P31994)
T1 chain: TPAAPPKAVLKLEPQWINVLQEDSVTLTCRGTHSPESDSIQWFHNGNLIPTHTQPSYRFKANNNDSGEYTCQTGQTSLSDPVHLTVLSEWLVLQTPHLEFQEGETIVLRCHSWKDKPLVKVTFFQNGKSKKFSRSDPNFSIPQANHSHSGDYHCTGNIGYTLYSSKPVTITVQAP

T2: FcgRIIa R (human, UniProt P12318)
T2 chain: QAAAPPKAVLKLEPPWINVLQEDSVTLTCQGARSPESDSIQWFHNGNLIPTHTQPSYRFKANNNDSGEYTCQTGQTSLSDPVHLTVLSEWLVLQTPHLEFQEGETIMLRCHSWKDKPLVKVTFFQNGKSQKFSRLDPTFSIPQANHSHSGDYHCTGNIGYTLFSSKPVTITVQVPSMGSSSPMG

T3: FcgRIa (human, UniProt P12314)
T3 chain: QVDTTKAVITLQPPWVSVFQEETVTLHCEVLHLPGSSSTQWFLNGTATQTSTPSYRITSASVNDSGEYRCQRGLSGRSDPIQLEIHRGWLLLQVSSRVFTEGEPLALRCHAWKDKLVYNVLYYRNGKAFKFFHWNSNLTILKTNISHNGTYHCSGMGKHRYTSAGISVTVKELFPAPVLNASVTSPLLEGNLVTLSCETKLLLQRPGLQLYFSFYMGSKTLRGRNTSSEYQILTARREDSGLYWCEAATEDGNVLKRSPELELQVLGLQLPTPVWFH

T4: FcgRIIa H (human, UniProt P12318)
T4 chain: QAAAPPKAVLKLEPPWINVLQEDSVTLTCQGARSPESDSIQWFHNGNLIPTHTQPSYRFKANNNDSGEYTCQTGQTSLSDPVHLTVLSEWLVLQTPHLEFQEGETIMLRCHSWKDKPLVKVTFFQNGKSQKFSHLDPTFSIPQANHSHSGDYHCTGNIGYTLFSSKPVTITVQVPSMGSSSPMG


How the values were obtained:
Test in all cases: SPR
FcgRIIIa V = FcgRIIIa V (human, UniProt P08637)
FcgRIIIa V, sequence (P08637 17-208 F176V): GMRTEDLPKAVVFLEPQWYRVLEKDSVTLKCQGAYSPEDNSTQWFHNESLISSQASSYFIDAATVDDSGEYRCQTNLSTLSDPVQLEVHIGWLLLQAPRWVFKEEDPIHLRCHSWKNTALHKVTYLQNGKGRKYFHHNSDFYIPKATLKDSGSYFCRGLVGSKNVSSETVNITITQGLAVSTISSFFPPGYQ

FcgRIIb = target: T1, FcgRIIb
FcgRIIa R = target: T2, FcgRIIa R
FcgRIa = target: T3, FcgRIa
FcgRIIIa F = FcgRIIIa F (human, UniProt P08637)
FcgRIIIa F, sequence (P08637 17-208): as the sequence (P08637 17-208 F176V) above, with V160F counted along it

FcgRIIa H = target: T4, FcgRIIa H

Binder | Kd (FcgRIIIa V) [nM] | Kd (FcgRIIb) [nM] | Kd (FcgRIIa R) [nM] | Kd (FcgRIa) [nM] | Kd (FcgRIIIa F) [nM] | Kd (FcgRIIa H) [nM]
H240-Kn219/H240-Hl068/L73-k0 (antibody) chain 1: QDQLVQSGAEVKKPGASVKVSCKASGFNIKDTYIQWVRQAPGQGLEWMGRIDPLRKQTKYREKFEGRVTITADTSTNTAYMELSSLRSEDTAVYYCVRSGREFDYWGQGTLVTVSSASTKGPSVFPLAPSSKSTSGGTAALGCLVKDYFPEPVTVSWNSGALTSGVHTFPAVLQSSGLYSLSSVVTVPSSSLGTQTYICNVNHKPSNTKVDKKVEPKSCDKTHTCPPCPAPEIYWGPMVFLFPPKPKDTLMISRTPEVTCVVVDVSDEDPEVKFNWYVDGVEVHNAKTKPREEQYNATYRVVSVLTVLHQDWLNGKEYKCKVSNKDLPAPIEKTISKAKGQPREPQVCTLPPSRDELTKNQVSLWCLVKGFYPSDIAVEWESNGQPENNYKTTPPVLDSDGSFFLYSKLTVDKSRWQQGNVFSCSVMHEALHNHYTQKSLSLSP chain 2: QDQLVQSGAEVKKPGASVKVSCKASGFNIKDTYIQWVRQAPGQGLEWMGRIDPLRKQTKYREKFEGRVTITADTSTNTAYMELSSLRSEDTAVYYCVRSGREFDYWGQGTLVTVSSASTKGPSVFPLAPSSKSTSGGTAALGCLVKDYFPEPVTVSWNSGALTSGVHTFPAVLQSSGLYSLSSVVTVPSSSLGTQTYICNVNHKPSNTKVDKKVEPKSCDKTHTCPPCPAPELLGGPSVFLFPPKPKDTLMISRTPEVTCVVVDVSHEEPEVKFNWYVDGVEVHNAKTKPREEQYNSTYRVVSVLTVLHQDWLNGKEYKCKVSNDALPKPIEETISKAKGQPREPQVYTLPPSRCELTKNQVSLSCAVKGFYPSDIAVEWESNGQPENNYKTTPPVLDSDGSFFLVSKLTVDKSRWQQGNVFSCSVMHEALHNHYTQKSLSLSP chain 3: DIQMTQSPSSLSASVGDRVTITCRASQDIHKYIAWYQQKPGQAPRLLIQYTSTLQPGVPSRFSGSGSGTDYTFTISSLQPEDIATYYCLQYEQLRTFGGGTKVEIKRTVAAPSVFIFPPSDEQLKSGTASVVCLLNNFYPREAKVQWKVDNALQSGNSQESVTEQDSKDSTYSLSSTLTLSKADYEKHKVYACEVTHQGLSSPVTKSFNRGEC | 0.49 | 90 | 14 | 0.15 | 2.7 | 20
H240-Kn220/H240-Hl068/L73-k0 (antibody) chain 1: QDQLVQSGAEVKKPGASVKVSCKASGFNIKDTYIQWVRQAPGQGLEWMGRIDPLRKQTKYREKFEGRVTITADTSTNTAYMELSSLRSEDTAVYYCVRSGREFDYWGQGTLVTVSSASTKGPSVFPLAPSSKSTSGGTAALGCLVKDYFPEPVTVSWNSGALTSGVHTFPAVLQSSGLYSLSSVVTVPSSSLGTQTYICNVNHKPSNTKVDKKVEPKSCDKTHTCPPCPAPEMYWGPMVFLFPPKPKDTLMISRTPEVTCVVVDVSDEDPEVKFNWYVDGVEVHNAKTKPREEQYNATYRVVSVLTVLHQDWLNGKEYKCKVSNKDLPAPIEKTISKAKGQPREPQVCTLPPSRDELTKNQVSLWCLVKGFYPSDIAVEWESNGQPENNYKTTPPVLDSDGSFFLYSKLTVDKSRWQQGNVFSCSVMHEALHNHYTQKSLSLSP chain 2: QDQLVQSGAEVKKPGASVKVSCKASGFNIKDTYIQWVRQAPGQGLEWMGRIDPLRKQTKYREKFEGRVTITADTSTNTAYMELSSLRSEDTAVYYCVRSGREFDYWGQGTLVTVSSASTKGPSVFPLAPSSKSTSGGTAALGCLVKDYFPEPVTVSWNSGALTSGVHTFPAVLQSSGLYSLSSVVTVPSSSLGTQTYICNVNHKPSNTKVDKKVEPKSCDKTHTCPPCPAPELLGGPSVFLFPPKPKDTLMISRTPEVTCVVVDVSHEEPEVKFNWYVDGVEVHNAKTKPREEQYNSTYRVVSVLTVLHQDWLNGKEYKCKVSNDALPKPIEETISKAKGQPREPQVYTLPPSRCELTKNQVSLSCAVKGFYPSDIAVEWESNGQPENNYKTTPPVLDSDGSFFLVSKLTVDKSRWQQGNVFSCSVMHEALHNHYTQKSLSLSP chain 3: DIQMTQSPSSLSASVGDRVTITCRASQDIHKYIAWYQQKPGQAPRLLIQYTSTLQPGVPSRFSGSGSGTDYTFTISSLQPEDIATYYCLQYEQLRTFGGGTKVEIKRTVAAPSVFIFPPSDEQLKSGTASVVCLLNNFYPREAKVQWKVDNALQSGNSQESVTEQDSKDSTYSLSSTLTLSKADYEKHKVYACEVTHQGLSSPVTKSFNRGEC | 0.5 | 160 | 25 | 0.15 | 3.5 | 34
H240-Kn216/H240-Hl068/L73-k0 (antibody) chain 1: QDQLVQSGAEVKKPGASVKVSCKASGFNIKDTYIQWVRQAPGQGLEWMGRIDPLRKQTKYREKFEGRVTITADTSTNTAYMELSSLRSEDTAVYYCVRSGREFDYWGQGTLVTVSSASTKGPSVFPLAPSSKSTSGGTAALGCLVKDYFPEPVTVSWNSGALTSGVHTFPAVLQSSGLYSLSSVVTVPSSSLGTQTYICNVNHKPSNTKVDKKVEPKSCDKTHTCPPCPAPEVYWGPMVFLFPPKPKDTLMISRTPEVTCVVVDVSDEDPEVKFNWYVDGVEVHNAKTKPREEQYNATYRVVSVLTVLHQDWLNGKEYKCKVSNKDLPAPIEKTISKAKGQPREPQVCTLPPSRDELTKNQVSLWCLVKGFYPSDIAVEWESNGQPENNYKTTPPVLDSDGSFFLYSKLTVDKSRWQQGNVFSCSVMHEALHNHYTQKSLSLSP chain 2: QDQLVQSGAEVKKPGASVKVSCKASGFNIKDTYIQWVRQAPGQGLEWMGRIDPLRKQTKYREKFEGRVTITADTSTNTAYMELSSLRSEDTAVYYCVRSGREFDYWGQGTLVTVSSASTKGPSVFPLAPSSKSTSGGTAALGCLVKDYFPEPVTVSWNSGALTSGVHTFPAVLQSSGLYSLSSVVTVPSSSLGTQTYICNVNHKPSNTKVDKKVEPKSCDKTHTCPPCPAPELLGGPSVFLFPPKPKDTLMISRTPEVTCVVVDVSHEEPEVKFNWYVDGVEVHNAKTKPREEQYNSTYRVVSVLTVLHQDWLNGKEYKCKVSNDALPKPIEETISKAKGQPREPQVYTLPPSRCELTKNQVSLSCAVKGFYPSDIAVEWESNGQPENNYKTTPPVLDSDGSFFLVSKLTVDKSRWQQGNVFSCSVMHEALHNHYTQKSLSLSP chain 3: DIQMTQSPSSLSASVGDRVTITCRASQDIHKYIAWYQQKPGQAPRLLIQYTSTLQPGVPSRFSGSGSGTDYTFTISSLQPEDIATYYCLQYEQLRTFGGGTKVEIKRTVAAPSVFIFPPSDEQLKSGTASVVCLLNNFYPREAKVQWKVDNALQSGNSQESVTEQDSKDSTYSLSSTLTLSKADYEKHKVYACEVTHQGLSSPVTKSFNRGEC | 0.46 | 160 | 23 | 0.17 | 3.4 | 32
H240-Kn217/H240-Hl068/L73-k0 (antibody) chain 1: QDQLVQSGAEVKKPGASVKVSCKASGFNIKDTYIQWVRQAPGQGLEWMGRIDPLRKQTKYREKFEGRVTITADTSTNTAYMELSSLRSEDTAVYYCVRSGREFDYWGQGTLVTVSSASTKGPSVFPLAPSSKSTSGGTAALGCLVKDYFPEPVTVSWNSGALTSGVHTFPAVLQSSGLYSLSSVVTVPSSSLGTQTYICNVNHKPSNTKVDKKVEPKSCDKTHTCPPCPAPEDYWGPMVFLFPPKPKDTLMISRTPEVTCVVVDVSDEDPEVKFNWYVDGVEVHNAKTKPREEQYNATYRVVSVLTVLHQDWLNGKEYKCKVSNKDLPAPIEKTISKAKGQPREPQVCTLPPSRDELTKNQVSLWCLVKGFYPSDIAVEWESNGQPENNYKTTPPVLDSDGSFFLYSKLTVDKSRWQQGNVFSCSVMHEALHNHYTQKSLSLSP chain 2: QDQLVQSGAEVKKPGASVKVSCKASGFNIKDTYIQWVRQAPGQGLEWMGRIDPLRKQTKYREKFEGRVTITADTSTNTAYMELSSLRSEDTAVYYCVRSGREFDYWGQGTLVTVSSASTKGPSVFPLAPSSKSTSGGTAALGCLVKDYFPEPVTVSWNSGALTSGVHTFPAVLQSSGLYSLSSVVTVPSSSLGTQTYICNVNHKPSNTKVDKKVEPKSCDKTHTCPPCPAPELLGGPSVFLFPPKPKDTLMISRTPEVTCVVVDVSHEEPEVKFNWYVDGVEVHNAKTKPREEQYNSTYRVVSVLTVLHQDWLNGKEYKCKVSNDALPKPIEETISKAKGQPREPQVYTLPPSRCELTKNQVSLSCAVKGFYPSDIAVEWESNGQPENNYKTTPPVLDSDGSFFLVSKLTVDKSRWQQGNVFSCSVMHEALHNHYTQKSLSLSP chain 3: DIQMTQSPSSLSASVGDRVTITCRASQDIHKYIAWYQQKPGQAPRLLIQYTSTLQPGVPSRFSGSGSGTDYTFTISSLQPEDIATYYCLQYEQLRTFGGGTKVEIKRTVAAPSVFIFPPSDEQLKSGTASVVCLLNNFYPREAKVQWKVDNALQSGNSQESVTEQDSKDSTYSLSSTLTLSKADYEKHKVYACEVTHQGLSSPVTKSFNRGEC | 0.38 | 120 | 28 | 0.17 | 2.4 | 76
